The source of these data is the supplement of paper PMC9170038.

The series relates to MS2 coat protein. Put plainly: apparent KD of MS2 coat protein; designed switch direction (-1 OFF switch, 1 ON switch): 1; higher = weaker reporter binding. Summed up:
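Each step of the titration lasted 0.8–1.5 h at the lowest concentration and 10–20 min at the highest. The protein, SNAP-549-labelled MS2 coat protein, went from 0.7 or 1.5 nM doubling to 3 µM over RNA switches transcribed on Illumina chips by stalled E. coli RNA polymerase. Normalised cluster fluorescence was curve-fitted, and the per-design median over clusters is given as apparent KD.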

Setting [1] is: input ligand: microRNA oligo, concentration not stated.
Setting [2] is: Eterna round: R95, input ligand: FMN 200 uM.
The mark [3] stands for this setting: Eterna round: R95, input ligand: microRNA oligo, concentration not stated.
Where [4] appears, read: Eterna round: R95, input ligand: none.

On to “GAGAGAGGGUGAGGAUAUUUAGUGAUAAUGAUAGGAGAAGGCACAGACAUGAGGAUCACCCAUGUGGGAAUAAUCCAGAGAGAG [Parity 9 - Jieux - Same State NG 1] (Eterna round: R96, puzzle: Same State NG 1)”, for which the “apparent KD of MS2 coat protein” value reads like this: (input ligand: FMN 200 uM) 199 nM; under setting [1], 31.9 nM; (input ligand: none) 186 nM.
As for “GAGAGUGAAGUACAGGAUAUGAGGAGAGGAACAUGAGGAUCACCCAUGUGAAAUAGAGAGAAGAGUCAGAAGGGUAGGGAAGAGA [JR_SS2_Sub004] (puzzle: Same State 2)”, the “apparent KD of MS2 coat protein” value was 32.8 nM under setting [2], 31.4 nM under setting [3] and 23 nM under setting [4].
For “GAGGGACAGACCAACAUGAGGAUCACCCAUGUCCUCGCAGGUCAGGAUAUCCGUCCAACAGGCAAGGAGAAGGGACGGUGAACC (Eterna round: R96, puzzle: Same State NG 3)”, the “apparent KD of MS2 coat protein” value runs as follows: (input ligand: FMN 200 uM) 522 nM; under setting [1], 1200 nM; (input ligand: none) 724 nM.
“GAGGGCGAAAGCAACAUGAGGAUCACCCAUGUCCUCGGAGGGCAGGAUAUCCGGCGGUAGCCGAAGGAGAAGGGUCGAAAAGAA [AK SSNG3-V2-34] (Eterna round: R96, puzzle: Same State NG 3)”: the “apparent KD of MS2 coat protein” value stood at 34.8 nM (input ligand: FMN 200 uM), 292 nM under setting [1] and 61.1 nM (input ligand: none).
“GAGGGCGAAAGCGACAUGAGGAUCACCCAUGUCCUCGGAGGACAGGAUAUCCGGCAAAAGCCGAAGGAGAAGGGUCGAAAAGAA [AK SSNG3-V2-37] (Eterna round: R96, puzzle: Same State NG 3)”: the “apparent KD of MS2 coat protein” value (input ligand: FMN 200 uM) was determined as 47.2 nM, the “apparent KD of MS2 coat protein” value under setting [1] amounted to 69.7 nM and the “apparent KD of MS2 coat protein” value (input ligand: none) was determined as 136 nM.
Take “GAGUAGUUGAUAGGAUAUUGAUUGUUGUAGGAUCAAGAAGGAUCUAACAUGAGGAUCACCCAUGUAGGACUAUUCCUGUGUAUC [Parity 85 - Jieux - Same State NG 1] (Eterna round: R96, puzzle: Same State NG 1)”: the “apparent KD of MS2 coat protein” value (input ligand: FMN 200 uM) worked out at 18.6 nM, the “apparent KD of MS2 coat protein” value under setting [1] came out at 13.7 nM and the “apparent KD of MS2 coat protein” value (input ligand: none) was determined as 21.4 nM.
On to “GAGUGGAGGUAAGGAUAUACAAUGAUAAUCACAGUAGAAGGUACUAACAUGAGGAUCACCCAUGUAGGACUAUACCAGAGAGGG [Parity 39 - Jieux - Same State NG 1] (Eterna round: R96, puzzle: Same State NG 1)”, for which, under setting [1], the “apparent KD of MS2 coat protein” value was determined as 13 nM.
“GAGUGGCAGUUAGGAUAUAUAGUGAUAAUCACAGUAGAAGGAACUGACAUGAGGAUCACCCAUGUAGGACUAAUCCAGAGAGAG [Parity 41 - Jieux - Same State NG 1] (Eterna round: R96, puzzle: Same State NG 1)”: the “apparent KD of MS2 coat protein” value (input ligand: FMN 200 uM) was 65.7 nM, the “apparent KD of MS2 coat protein” value under setting [1] worked out at 29.8 nM and the “apparent KD of MS2 coat protein” value (input ligand: none) came out at 44.2 nM.
Regarding “GAGUGGUGGAGAGGAUAUACAUUGUUAUUCACUGUAGAAGGUUCUAACAUGAGGAUCACCCAUGUAGGACUAUUCCUGAGUUUU [Parity 56 - Jieux - Same State NG 1] (Eterna round: R96, puzzle: Same State NG 1)”, the “apparent KD of MS2 coat protein” value under setting [1] stood at 8.92 nM.
Turning to “GAUAGACAUGAGGAUCACCCAUGUGACAAAACCACAGGAUAUCAUGCAGGCGUAACUGCAUGAGAAGGGUGAGACU [Quanve] (puzzle: Same State 1)”, the “apparent KD of MS2 coat protein” value under setting [2] was 61.1 nM, the “apparent KD of MS2 coat protein” value under setting [3] turned out to be 20.6 nM and the “apparent KD of MS2 coat protein” value under setting [4] was 35.8 nM.
Consider “GCAAAGGCGGUAGGAUAUCUAGGAUAUGGGAAAGACUAAGUCUGUAGGUCACCUAACCCAGAAGGAGAGAAGGACACCGAAAGG [pwkr ssNG2 2FMN + F9.25] (Eterna round: R96, puzzle: Same State NG 2)”, for which the “apparent KD of MS2 coat protein” value (input ligand: FMN 200 uM) came out at 617 nM, the “apparent KD of MS2 coat protein” value under setting [1] is 9.18 nM and the “apparent KD of MS2 coat protein” value (input ligand: none) turned out to be 73.7 nM.
